Experimental data published in publication PMC10018359, “Allosteric effects of E. coli SSB and RecR proteins on RecO protein binding to DNA” (Nucleic Acids Research, 2023).

T1: RecO (Escherichia coli, UniProt P0A7H3 1-242)
T1 sequence: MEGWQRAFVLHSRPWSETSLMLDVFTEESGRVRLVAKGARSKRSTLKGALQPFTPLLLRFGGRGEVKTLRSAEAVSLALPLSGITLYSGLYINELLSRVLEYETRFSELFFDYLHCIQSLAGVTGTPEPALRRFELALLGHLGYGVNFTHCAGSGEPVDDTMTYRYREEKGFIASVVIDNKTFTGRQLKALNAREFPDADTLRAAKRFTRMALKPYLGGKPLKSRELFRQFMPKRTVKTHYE

T2: RecO;RecR (Escherichia coli;Escherichia coli, UniProt P0A7H3;P0A7H6 1-242;1-201, |)
T2 sequence 1: T1 sequence
T2 sequence 2: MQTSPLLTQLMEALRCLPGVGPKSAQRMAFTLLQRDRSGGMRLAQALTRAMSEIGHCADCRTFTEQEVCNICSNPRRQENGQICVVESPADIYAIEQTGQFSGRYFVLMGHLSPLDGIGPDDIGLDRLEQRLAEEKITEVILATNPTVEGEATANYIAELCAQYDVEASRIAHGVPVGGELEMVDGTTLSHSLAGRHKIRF

B1: Escherichia coli RecR protein (natural protein, E. coli, UniProt P0A7H6 1-201, looked up)
chain: T2 sequence 2
notes: RecR, recombination mediator protein, E. coli; in the complex with RecO found here it is a tetramer (RecR4O); also called E. coli RecR; source: E. coli BL21 Rosetta 2(DE3)pLysS, plasmid pMCSG7, purified (Ni-NTA), His-tag cleaved with TEV protease
B2: (dT)70 (ssDNA)
DNA: TTTTTTTTTTTTTTTTTTTTTTTTTTTTTTTTTTTTTTTTTTTTTTTTTTTTTTTTTTTTTTTTTTTTTT
B3: Cy3-(dT)140 (ssDNA)
DNA: TTTTTTTTTTTTTTTTTTTTTTTTTTTTTTTTTTTTTTTTTTTTTTTTTTTTTTTTTTTTTTTTTTTTTTTTTTTTTTTTTTTTTTTTTTTTTTTTTTTTTTTTTTTTTTTTTTTTTTTTTTTTTTTTTTTTTTTTTTTT
B4: Cy3-(dT)68 (ssDNA)
DNA: TTTTTTTTTTTTTTTTTTTTTTTTTTTTTTTTTTTTTTTTTTTTTTTTTTTTTTTTTTTTTTTTTTTT
B5: Escherichia coli RecO protein (natural protein, E. coli, UniProt P0A7H3 1-242, looked up)
chain: T1 sequence
notes: RecO, recombination mediator protein of the RecF pathway, E. coli; also called E. coli RecO; source: E. coli BL21(DE3) pLysS, plasmid pMCSG7, purified (Ni-NTA, HiTrap Heparin HP) after His-tag cleavage with TEV protease

Tests used:
[1] = molecular target: SSB-Ct peptide C-terminal tail (Escherichia coli) (UniProt P0AGE0); experiment: given as Ka; conditions: cited from earlier work
[2] = molecular target: the molecule itself; experiment: AUC; sedimentation equilibrium, 18 000, 23 000 and 28 000 rpm, 25°C, buffer BTP; RecO 2.24 uM, RecR 8.96 uM, SSB-Ct 13.4 uM, Cy3-(dT)15 0.56 uM; absorbance of the Cy3-DNA at 546 nm; one-species fit
[3] = molecular target: B5; experiment: AUC; sedimentation velocity, 42,000 rpm, 25°C, buffer BTP; RecO 2.24 uM, RecR 8.96 uM, Cy3-(dT)L (L = 15, 35, 68, 140) 0.56 uM, in the absence and presence of SSB-Ct 13.4 uM; absorbance of the Cy3-DNA at 546 nm; c(s) distributions; conditions: both partners purified
RecO = molecular target: T1, RecO; experiment: light scattering; no SSB-Ct; onset at RecO/DNA 6; Buffer BTP: 20 mM Bis-Tris propane pH 8.0, 50 mM NaCl, 25% (v/v) glycerol, 1 mM TCEP, 25 C; conditions: protein: recombinant; tags: His-tag cleaved with TEV (pMCSG7)
[4] = molecular target: T3, RecO;SSB-Ct peptide (P15) (Escherichia coli;Escherichia coli, UniProt P0A7H3;P0AGE0 1-242;, |); experiment: AUC sedimentation velocity; 13.4 uM SSB-Ct; 2.1 S; Buffer BTP: 20 mM Bis-Tris propane pH 8.0, 50 mM NaCl, 25% (v/v) glycerol, 1 mM TCEP, 25 C; conditions: tags: His-tag cleaved with TEV (pMCSG7);; copies: 1;1; label: 3'-Cy3
RecO;RecR [5] = molecular target: T2, RecO;RecR; experiment: AUC sedimentation velocity; no SSB-Ct; 5.7 S; Buffer BTP: 20 mM Bis-Tris propane pH 8.0, 50 mM NaCl, 25% (v/v) glycerol, 1 mM TCEP, 25 C; conditions: protein: recombinant;recombinant; tags: His-tag cleaved with TEV (pMCSG7);His-tag cleaved with TEV (pMCSG7); label: 3'-Cy3
[6] = molecular target: T4, RecO;RecR;SSB-Ct peptide (P15) (Escherichia coli;Escherichia …, UniProt P0A7H3;P0A7H6;P0AGE0 1-242;1-201;, ||); experiment: AUC sedimentation velocity; 13.4 uM SSB-Ct; 4.8 S; Buffer BTP: 20 mM Bis-Tris propane pH 8.0, 50 mM NaCl, 25% (v/v) glycerol, 1 mM TCEP, 25 C; conditions: tags: His-tag cleaved with TEV (pMCSG7);His-tag cleaved with TEV (pMCSG7);; label: 3'-Cy3
RecO;RecR [7] = molecular target: T2, RecO;RecR; experiment: AUC sedimentation velocity; no SSB-Ct; 6.3 S; Buffer BTP: 20 mM Bis-Tris propane pH 8.0, 50 mM NaCl, 25% (v/v) glycerol, 1 mM TCEP, 25 C; conditions: protein: recombinant;recombinant; tags: His-tag cleaved with TEV (pMCSG7);His-tag cleaved with TEV (pMCSG7); label: 3'-Cy3
[8] = molecular target: T4, RecO;RecR;SSB-Ct peptide (P15); experiment: AUC sedimentation velocity; 13.4 uM SSB-Ct; 4.7 S; Buffer BTP: 20 mM Bis-Tris propane pH 8.0, 50 mM NaCl, 25% (v/v) glycerol, 1 mM TCEP, 25 C; conditions: tags: His-tag cleaved with TEV (pMCSG7);His-tag cleaved with TEV (pMCSG7);; label: 3'-Cy3
[9] = molecular target: T3, RecO;SSB-Ct peptide (P15); experiment: AUC sedimentation velocity; 13.4 uM SSB-Ct; 1.9 S; Buffer BTP: 20 mM Bis-Tris propane pH 8.0, 50 mM NaCl, 25% (v/v) glycerol, 1 mM TCEP, 25 C; conditions: tags: His-tag cleaved with TEV (pMCSG7);; copies: 1;1; label: 3'-Cy3
[10] = molecular target: T4, RecO;RecR;SSB-Ct peptide (P15); experiment: AUC sedimentation velocity and equilibrium; 13.4 uM SSB-Ct; 2.6 S; 131.1 kDa, RecR4O with one DNA; Buffer BTP: 20 mM Bis-Tris propane pH 8.0, 50 mM NaCl, 25% (v/v) glycerol, 1 mM TCEP, 25 C; conditions: tags: His-tag cleaved with TEV (pMCSG7);His-tag cleaved with TEV (pMCSG7);; label: 3'-Cy3
RecO;RecR [11] = molecular target: T2, RecO;RecR; experiment: AUC sedimentation velocity; no SSB-Ct; 2.9 S; Buffer BTP: 20 mM Bis-Tris propane pH 8.0, 50 mM NaCl, 25% (v/v) glycerol, 1 mM TCEP, 25 C; conditions: protein: recombinant;recombinant; tags: His-tag cleaved with TEV (pMCSG7);His-tag cleaved with TEV (pMCSG7); label: 3'-Cy3
[12] = molecular target: T3, RecO;SSB-Ct peptide (P15); experiment: AUC sedimentation velocity and equilibrium; 13.4 uM SSB-Ct; 0.7 S; 31.8 kDa, 1 RecO per DNA; Buffer BTP: 20 mM Bis-Tris propane pH 8.0, 50 mM NaCl, 25% (v/v) glycerol, 1 mM TCEP, 25 C; conditions: tags: His-tag cleaved with TEV (pMCSG7);; copies: 1;1; label: 3'-Cy3
[13] = molecular target: B1; experiment: AUC; sedimentation equilibrium, 18 000, 23 000 and 28 000 rpm, 25°C, buffer BTP; RecO 2.24 uM, RecR 8.96 uM, SSB-Ct 13.4 uM, Cy3-(dT)15 0.56 uM; absorbance of the Cy3-DNA at 546 nm; one-species fit; conditions: both partners purified
RecO;RecR [14] = molecular target: T2, RecO;RecR; experiment: AUC sedimentation velocity; no SSB-Ct; 5.4 S; Buffer BTP: 20 mM Bis-Tris propane pH 8.0, 50 mM NaCl, 25% (v/v) glycerol, 1 mM TCEP, 25 C; conditions: protein: recombinant;recombinant; tags: His-tag cleaved with TEV (pMCSG7);His-tag cleaved with TEV (pMCSG7); label: 3'-Cy3
[15] = molecular target: T4, RecO;RecR;SSB-Ct peptide (P15); experiment: AUC sedimentation velocity; 13.4 uM SSB-Ct; 3.8 S; Buffer BTP: 20 mM Bis-Tris propane pH 8.0, 50 mM NaCl, 25% (v/v) glycerol, 1 mM TCEP, 25 C; conditions: tags: His-tag cleaved with TEV (pMCSG7);His-tag cleaved with TEV (pMCSG7);; label: 3'-Cy3
[16] = molecular target: T3, RecO;SSB-Ct peptide (P15); experiment: AUC sedimentation velocity and equilibrium; 13.4 uM SSB-Ct; 1.2 S; 70.1 kDa, 2 RecO per DNA; Buffer BTP: 20 mM Bis-Tris propane pH 8.0, 50 mM NaCl, 25% (v/v) glycerol, 1 mM TCEP, 25 C; conditions: tags: His-tag cleaved with TEV (pMCSG7);; copies: 1;1; label: 3'-Cy3
[17] = molecular target: B5; experiment: AUC; sedimentation equilibrium, 18 000, 23 000 and 28 000 rpm, 25°C, buffer BTP (pH 8.0, 50 mM NaCl, 25% glycerol, 1 mM TCEP); RecO 2.24 uM, SSB-Ct 13.4 uM, Cy3-(dT)15 or Cy3-(dT)35 0.56 uM; absorbance of the Cy3-DNA at 546 nm; one-species fit; conditions: both partners purified

Sequence of SSB-Ct peptide C-terminal tail (Escherichia coli) (P0AGE0 whole entry, looked up): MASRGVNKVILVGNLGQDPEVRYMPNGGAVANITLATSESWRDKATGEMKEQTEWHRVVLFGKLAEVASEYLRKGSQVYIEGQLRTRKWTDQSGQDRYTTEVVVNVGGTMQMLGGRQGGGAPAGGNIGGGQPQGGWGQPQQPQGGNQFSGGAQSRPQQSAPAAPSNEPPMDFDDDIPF

Molecule: RecO (from UniProt P0A7H3)
- Kd [1]: 83.3 nM

Molecule: B1
- stoichiometry N [2]: 4
- binding result [3]: binds

Molecule: B2
- binding result (RecO): binds

Molecule: B3
- binding result [4]: binds
- binding result (RecO;RecR [5]): binds
- binding result [6]: binds

Molecule: B4
- binding result (RecO;RecR [7]): binds
- binding result [8]: binds
- binding result [9]: binds

Molecule: TTTTTTTTTTTTTTT (ssDNA) [Cy3-(dT)15]
- binding result [10]: binds
- binding result (RecO;RecR [11]): binds
- binding result [12]: binds

Molecule: B5
- stoichiometry N [13]: 1 RecO per RecR tetramer

Molecule: TTTTTTTTTTTTTTTTTTTTTTTTTTTTTTTTTTT (ssDNA) [Cy3-(dT)35]
- binding result (RecO;RecR [14]): binds
- binding result [15]: binds
- binding result [16]: binds

Molecule: PSNEPPMDFDDDIPF (source: bought: WatsonBio (Houston, TX)) [SSB-Ct peptide, composed of the 15 C-terminal amino acids of E. coli SSB]
- binding result [17]: binds
